Measured values published in CN116813757A (INST MICROBIOLOGY CAS, dated 2023).

Target: SARS-CoV-2原始毒株的RBD蛋白 (SARS-CoV-2 RBD-his蛋白) (SARS-CoV-2 original strain, UniProt P0DTC2 319-541)

B1: 单链纳米抗体R14 (R14-his蛋白) (VHH)
VHH: QVQLQESGGGLVQPGGSLRLSCAVSGFTLDYYAIGWFRQAPGKEREGVSCISSSDGSTSYADSVKGRFTISRDNAKNTVYLQMNSLKPEDTALYYCAATPATYYSGRYYYQCPAGGMDYWGQGTQVTVSS
  Kd: < 0.1 nM
